This note sets out measurements from patent US20170296524A1.

This experiment concerns the target T1, MCT1 (monocarboxylate transporter 1), endogenous (human), P53985.
T1 chain: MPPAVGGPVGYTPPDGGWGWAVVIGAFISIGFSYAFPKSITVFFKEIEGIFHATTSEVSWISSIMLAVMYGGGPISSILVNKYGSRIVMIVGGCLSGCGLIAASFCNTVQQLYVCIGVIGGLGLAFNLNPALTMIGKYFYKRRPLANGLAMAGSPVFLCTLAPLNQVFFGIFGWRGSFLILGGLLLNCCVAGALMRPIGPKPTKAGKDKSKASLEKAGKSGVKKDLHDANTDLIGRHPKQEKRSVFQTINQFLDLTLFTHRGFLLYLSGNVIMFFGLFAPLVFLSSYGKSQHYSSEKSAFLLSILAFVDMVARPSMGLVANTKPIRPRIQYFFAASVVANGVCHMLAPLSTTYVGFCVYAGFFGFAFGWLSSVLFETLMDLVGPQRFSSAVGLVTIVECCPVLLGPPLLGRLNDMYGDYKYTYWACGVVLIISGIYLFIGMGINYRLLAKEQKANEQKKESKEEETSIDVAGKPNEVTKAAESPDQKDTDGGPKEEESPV
In words: tandem affinity purification of CRBN-SF, mass spectrometry. Conditions: remark: other sources report otherwise.

B1: Strep-Flag tagged CRBN (CRBN-SF), Q96SW2 1-442 (protein, human, UniProt Q96SW2 1-442, looked up, not shown: small tags and cut ends)
chain: MAGEGDQQDAAHNMGNHLPLLPAESEEEDEMEVEDQDSKEAKKPNIINFDTSLPTSHTYLGADMEEFHGRTLHDDDSCQVIPVLPQVMMILIPGQTLPLQLFHPQEVSMVRNLIQKDRTFAVLAYSNVQEREAQFGTTAEIYAYREEQDFGIEIVKVKAIGRQRFKVLELRTQSDGIQQAKVQILPECVLPSTMSAVQLESLNKCQIFPSKPVSREDQCSYKWWQKYQKRKFHCANLTSWPRWLYSLYDAETLMDRIKKQLREWDENLKDDSLPSNPIDFSYRVAACLPIDDVLRIQLLKIGSAIQRLRCELDIMNKCTSLCCKQCQETEITTKNEIFSLSLCGPMAAYVNPHGYVHETLTVYKACNLNLIGRPSTEHSWFPGYAWTVAQCKICASHIGWKFTATKKDMSPQKFWGLTRSALLPTIPDTEDEISPDKVILCL
B1: the unique peptides identified in the screen (unique peptides) is 6.
